{"source": "the nanobody polyreactivity screen of Harvey et al. (2022)", "data": [{"test": "yeast display, Sf9 membrane polyspecificity reagent, FACS + sequencing; frameworks hold sequencing errors", "procedure,_shortened": "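In a synthetic yeast display library (Saccharomyces cerevisiae BJ5465), nanobody expression was induced with galactose for 36–48 hours. FACS gates were set low and high (top ~1%) using anti-HA fluorescence for expression and streptavidin fluorescence for binding of the Sf9 membrane reagent. Each polyreactivity label is drawn from the gate of origin.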", "values": [{"sequence": "QVQLVESGGGLVQAGGILRLSCAASGSTFSPYAMGWYRQAPGKERELVANITISGGSTYYADSVKGRFTISRDNAKNTVYLQMNSLKAEDTAVYYCNADSLIRWLFTVVIFDYWGQGTQVTVSS", "polyreactivity (PSR sort gate)": "low polyreactivity"}, {"sequence": "QVQLVESGGGLVQAGGILRLSCAASGSTFSSNAMGWYRQAPGKERELVAAISVNGGSTNYADSVKVRFTISRDNAKNTVYLQMNSLKPEDTAVYYCAAEPAKVAFYRGDYWGQGTEVTVSS", "polyreactivity (PSR sort gate)": "low polyreactivity"}, {"sequence": "QVQLVESGGGLVQAGGILRLSCAASGSTFTSYAMGWYRQAPGKERELVAAISKSGGSTYYADSVKGRFTISRDNAKNTVYLQMNSLKPEDTALYYCAARYNVRSYSTSRFYYWGQGTLVTVSS", "polyreactivity (PSR sort gate)": "low polyreactivity"}, {"sequence": "QVQLVESGGGLVQAGGILRLSCAASGSTFYGYAMGWYRQAPGKERELVAAITRSGGSTYYADSVKGRFTISRDNAKNTVYLQMNSLKPEDTEVYYCNKYGYKGGVGYDYWGQGTQVTVSS", "polyreactivity (PSR sort gate)": "high polyreactivity"}, {"sequence": "QVQLVESGGGLVQAGGILRLSCAPSGRIISWNPIGLYRQAPGQERELVADITYSGGSTYYADSVKGRFTISRDNAKNTVYLQMNSLKPEDTAVYDCNADPRWYHFEYGYWGQGTQVTVSS", "polyreactivity (PSR sort gate)": "high polyreactivity"}, {"sequence": "QVQLVESGGGLVQAGGILRLSCAPSGSTFRANAMGWYRQAPGKERELVAAITSGGSTNYADSVKGRFTISRDNAKNTVYLQRNSLKPEDTAVYYCADESYQEHSFYVYYGYDYWGQGTQVTVSS", "polyreactivity (PSR sort gate)": "low polyreactivity"}, {"sequence": "QVQLVESGGGLVQAGGILRLSCASSGFTFSLYDMGWYRQAPRKDRELVADINGSGGSTYYADSVKGRFTISRDNAKNTVYLQLNILKPEDTAVYYCAAGPPSRWWYIVDYGYWGQGTQVTVSS", "polyreactivity (PSR sort gate)": "high polyreactivity"}, {"sequence": "QVQLVESGGGLVQAGGILRLSCGASGIIFDGYAMGWSRQAPGKERELVAAIDGTGDSTYYADSVKGRFTISRDNAKNTVYLQMNSLKPEDTAVYYCGAEYDYRWWYGYDYWGQGTQVTVSW", "polyreactivity (PSR sort gate)": "high polyreactivity"}, {"sequence": "QVQLVESGGGLVQAGGILRLSCPASGRTFVNYAMGWYRQQPGKESELVAAITSRGGSTYYADSVKGRFTISRDNAKNSVFLQMNSLKPEDTAFYYCAAGEYYYWGQGTQVTVSS", "polyreactivity (PSR sort gate)": "high polyreactivity"}, {"sequence": "QVQLVESGGGLVQAGGILRLSSAASGSIFSNYAMGWYRQAPGKERELVAAINRSGGSTYYADSVKGRFTISRDNAKNTVYLQITSLKPDDTAVYYCNAVRLYYCAGGQFQYHFWGQGTQVTVSS", "polyreactivity (PSR sort gate)": "high polyreactivity"}, {"sequence": "QVQLVESGGGLVQAGGILRLSSAASGSTFFNYAMGWYRQAPGKERELVAAISSSGGRTYYADSVKGRFTISRDNAKNTVYLQMNSLKPEDTSVYYCAASGRKHGMNYWGQGTQVTVSS", "polyreactivity (PSR sort gate)": "high polyreactivity"}, {"sequence": "QVQLVESGGGLVQAGGILRVSCAASGYTFLGYAMGWYRQPPGKEMELVAVISRTGGRTYYADSVKGRFTISRDNAKNTVYLQMNSLKPEDTAVYYCATEDYRGPEYDYWGQGTQVNVSS", "polyreactivity (PSR sort gate)": "high polyreactivity"}, {"sequence": "QVQLVESGGGLVQAGGILSLSCAASGSTFPYNAMGWYRQAPGIERQLVAAISSGGSTYYADSVKGRFTNSRDNAKNTVYLMMNRLKPEDTAVYYCAASWGKYIRSWGYGYWGQGTLVTVSS", "polyreactivity (PSR sort gate)": "high polyreactivity"}, {"sequence": "QVQLVESGGGLVQAGGILSLSCAASGSTLNSYAMGWNRPAPGKERELVAAIRWSGSSTYYADSVKGRFTISRDNAKNSVFLQMNSLKPQDTAVYYCAKGYSYGRPWDIYYYCGQGTQVTVSS", "polyreactivity (PSR sort gate)": "low polyreactivity"}, {"sequence": "QVQLVESGGGLVQAGGMRRLSCAASGRTFGQYVMGWSRQAPGKERELVAAISRRGGSTYYADSVKGRFTISRDNAKNTVYLQMNSLKPEDTAVYYCAPAGTYTGGEGYLGQGTQVTVSS", "polyreactivity (PSR sort gate)": "high polyreactivity"}, {"sequence": "QVQLVESGGGLVQAGGRHRLICAATGITYKSNPMGWYIQAPGTETELVAAIARRASSTYYADSVKGRFTISRDNAKNTVYLHMNSLNPEDTAVYYCNAVLPVYRTNLDYWGQGTQVTVSS", "polyreactivity (PSR sort gate)": "high polyreactivity"}, {"sequence": "QVQLVESGGGLVQAGGRHRLTCAASGYTFDWYTMGWYRQAPGTERELVAAISASGVRTYYADSVKGRFTISSDNAKNSVYLQMNSLKPEDTAVYYCYRVYSTSRITEYEFDYWGQGTQVTVSS", "polyreactivity (PSR sort gate)": "low polyreactivity"}, {"sequence": "QVQLVESGGGLVQAGGRLLLSCAASGSTFTHYAMGWYRQAPGKERELVPAISWGAGSTYYADSVKGRFTNSRDNAKNTVYLQMNSLKPEDTAVYYCAAYLYRYGHKYYSWGQGTQVTVSS", "polyreactivity (PSR sort gate)": "high polyreactivity"}, {"sequence": "QVQLVESGGGLVQAGGRLPLSCAASGFIFGDYTMGWYRQAPGKERELVASISRRGGSTTYADSVKGRFTISRDNAMNTVYLQMNSLKPEDTAVYYCAARSRPSGSYNRHGPVDYWGQGTQVTVSS", "polyreactivity (PSR sort gate)": "high polyreactivity"}, {"sequence": "QVQLVESGGGLVQAGGRLRISCAASGFTFDLYAMGWYRQAPGKERELVAAISWSGGSTRYADSVKGRFTISRDNAKNTVYLQMNSLKPEDTAVSYCARQPRLYFKGKLYGYWGQGTQVTVSS", "polyreactivity (PSR sort gate)": "high polyreactivity"}, {"sequence": "QVQLVESGGGLVQAGGRLRISCAASGSIFYLYARGWYRQAPGKERELVPVITGSGGSTYYADSVKGRFTISRDNSKYTVYLQMNSLKPVDTAVYYGAADYYWGYDWGQGTQVTVSS", "polyreactivity (PSR sort gate)": "low polyreactivity"}, {"sequence": "QVQLVESGGGLVQAGGRLRISCAASGSTFLDNAMGWYRQAPGKERELVASITSSGGNTYYADSVKGRFTISRDNAKNTVYLQMNRLKPEDTAVYYCAADAASYWGSNSANYDYDYWGQGTQVTVSS", "polyreactivity (PSR sort gate)": "low polyreactivity"}, {"sequence": "QVQLVESGGGLVQAGGRLRISCAASVRIFGVNAMGWYRQAPGKERELVAVISSGGSTYYADSVKGRFTISRDNAKNTVYLQMNSLNPEDTAVYSCYAVVGRWFPYNLSDYWGQGTQVTVSS", "polyreactivity (PSR sort gate)": "low polyreactivity"}, {"sequence": "QVQLVESGGGLVQAGGRLRLGCAASGSTYLYNAMGLYRQAPGKERELVAAISWTGGSTYYADSVKARYTISRDNAKNTVYLQMNSLKPEDTAVYYCNSLSVPDYDYWGHGTQVTVSS", "polyreactivity (PSR sort gate)": "high polyreactivity"}, {"sequence": "QVQLVESGGGLVQAGGRLRLICAASARTLDRNAIGWYRQAPGEEREFVAAISSSGDSTYADSVKGRFTISRDNAKNTVYLQMNSLKPEDTAVYYCNAEEKVTYSASYFWVYDAMDHWGQGTQVTVSS", "polyreactivity (PSR sort gate)": "low polyreactivity"}, {"sequence": "QVQLVESGGGLVQAGGRLRLICAASGRIYGYNTMGWYRQAPGKERDFDAAINSGGRTYYADSVKGRFTISRDNAKNTVYLQMNSLKPEDTAVYYCAAGKGRWISGLYYGARYDYWGQGTQVTVSS", "polyreactivity (PSR sort gate)": "high polyreactivity"}, {"sequence": "QVQLVESGGGLVQAGGRLRLICAASGSILRYAMGWYIQAPGKERELVAAISYGGGSTYYADSVKGRFTISRDNAKNTVYLQMNSLKPEDTAVYYCNARQYVWYPYEYWGQGTQVTVSS", "polyreactivity (PSR sort gate)": "high polyreactivity"}, {"sequence": "QVQLVESGGGLVQAGGRLRLNCAASVITFPYNAMGWYRQATGKERELVAAITRSGASTYYADSVKGRFTISRDNSKNTVYVQMNSLKPEDTAVYYCAAKVIGRPRPYYYWGQGTQVTVSS", "polyreactivity (PSR sort gate)": "high polyreactivity"}, {"sequence": "QVQLVESGGGLVQAGGRLRLSCAASGFIFAWYAMGWYRQAPGKEMELVAAITWSAGSTYYADSVKGRFTISRDNAKNTVFLQMNSLKPEVTAVYYCAADAWYYSIYRGGDFWGQGTQVTVSS", "polyreactivity (PSR sort gate)": "low polyreactivity"}, {"sequence": "QVQLVESGGGLVQAGGRLRLSCAASGFIFDSNTMGWYRQAPGKERELVAGITRRGGSTYYADSVKGRFTISRDNAKNSVYLQMNSLNPEDTAVYYCATAGTYTGGEGYWGQGTQVTVSS", "polyreactivity (PSR sort gate)": "high polyreactivity"}, {"sequence": "QVQLVESGGGLVQAGGRLRLSCAASGFIFPVYAMGWYRQAPGKERELVASITTGGSTNYADSVKGRFTISRDNAKNTVYLQMNSLKPEDTAVYYCNKDTPASLANQYNYWGQGTQVTVSS", "polyreactivity (PSR sort gate)": "low polyreactivity"}]}]}
